T1: mutant MK recombinant protein MK-K102Q (human, UniProt P21741 23-143, K102Q)
T1 construct: range 23-143; Made from MKver10-pQCxmhIPG, secreted from 293T cells; not shown: linker and tag from vector pQCxmhIPG
T1 sequence (looked up): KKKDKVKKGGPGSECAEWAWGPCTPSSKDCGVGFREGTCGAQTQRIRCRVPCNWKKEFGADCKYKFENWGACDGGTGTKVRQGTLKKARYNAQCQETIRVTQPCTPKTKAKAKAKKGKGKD

T2: mutant MK recombinant protein MK-W69A (human, UniProt P21741 23-143, W69A)
T2 construct: range 23-143; Made from MKver10-pQCxmhIPG, secreted from 293T cells; not shown: linker and tag from vector pQCxmhIPG
T2 sequence (looked up): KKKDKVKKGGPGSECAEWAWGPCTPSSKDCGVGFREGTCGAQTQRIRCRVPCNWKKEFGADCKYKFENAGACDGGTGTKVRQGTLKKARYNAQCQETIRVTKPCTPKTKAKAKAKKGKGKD

T3: mutant MK recombinant protein MK-R81Q (human, UniProt P21741 23-143, R81Q)
T3 construct: range 23-143; Made from MKver10-pQCxmhIPG, secreted from 293T cells; not shown: linker and tag from vector pQCxmhIPG
T3 sequence (looked up): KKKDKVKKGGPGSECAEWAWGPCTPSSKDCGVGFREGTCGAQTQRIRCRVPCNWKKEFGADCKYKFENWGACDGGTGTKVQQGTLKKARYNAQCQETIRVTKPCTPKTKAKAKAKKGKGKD

T4: mutant MK recombinant protein MK-K79Q (human, UniProt P21741 23-143, K79Q)
T4 construct: range 23-143; Made from MKver10-pQCxmhIPG, secreted from 293T cells; not shown: linker and tag from vector pQCxmhIPG
T4 sequence (looked up): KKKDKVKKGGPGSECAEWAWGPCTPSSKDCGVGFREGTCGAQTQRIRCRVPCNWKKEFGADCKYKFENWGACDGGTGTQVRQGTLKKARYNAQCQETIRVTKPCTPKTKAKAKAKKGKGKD

T5: full length purified peptide of pleiotrophin (PEPTIDE INSTITUTE, INC.: 4335-v) (UniProt P21246 33-168, limits assumed)
T5 construct: mature; Bought product; also called PTN
T5 sequence (looked up): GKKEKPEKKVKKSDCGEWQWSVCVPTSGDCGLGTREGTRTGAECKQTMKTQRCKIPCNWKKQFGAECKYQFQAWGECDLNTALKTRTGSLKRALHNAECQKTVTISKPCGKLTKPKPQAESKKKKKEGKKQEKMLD

B1: hFB54-matu024 affinity-improved antibody (IgG) (antibody, V domains shown)
VH: EVQLVESGGGLVKPGGYLRLSCAASGFTFSSYAMSWVRQAPGKGLDWVATISSGGSYTYYPDSVKGRFTISRDNAKNSLYLQMNSLTDDDTAVYFCARHNYRYGEYYYAMDYWGQGTLVTVSS
VL: ETTVTQSPSSLSASVGDRVTIRCITSIDIDDEMNWYQQKSGKGPKLLISEGNTLRPGVPSRFSSSGYGTDFTLTISSLQPEDFATYYCLQSDNLPYTFGQGTKLEIK
B2: hFB54-matu039 affinity-improved antibody (IgG) (antibody, V domains shown)
VH: EVRLVESGGGLVKPGGYLRLSCAASGFTFSSYAMSWVRQAPGKGLDWVATISSGGSYTYYPDSVKERFTISRDNAKNSLYLQMNSLTDDDTAVYFCARHNYRYDEYYYGMDYWGQGTLVTVSS
VL: ETTVTQSPSSLSASVGDRVTIRCKTSIDIDDEMNWYQQKPGKGPKLLISEGNTLRPGVPSRFSSSGYGTDFTLTISSLQPEDFATYYCLQSDNLPYTFGQGTKLGIK
B3: hFB54-matu054 affinity-improved antibody (IgG) (antibody, V domains shown)
VH: EVQLVESGGGLVKPGGYLRLSCAASGFTFSSYAMSWVRQAPGKGLDWVATISSGGSYTYYPDSVKGRFTISRDNTKNTLYLQMNSLTDDDTAVYFCARHNYRYDEYYYAMDYWGQGTLVTVSS
VL: ETTVTQSPSSLSASVGDRVTIRCITSIDIEDEMNWYQQKPGKGPKLLISEGNTLRPGVPSRFSSSGYGTDFTLTISSLQPEDFATYYCLQSDNLPYTFGQGTKLEIK
B4: hFB54-matu062 affinity-improved antibody (IgG) (antibody, V domains shown)
VH: EVQLVESGGGLVKPGGYLRLSCAASGFTFSSYAMSWVRQAPGKGLDWVATISSGGSYTYYPDSVKGRFTISRDNAENTLYLQMNSLTNDDTAVYFCARHNYRYDEYYYAMDYWGQGTLVTVSS
VL: ETTVTQSPSSLSAFVGGRVAIRCITNIDIDDEMNWYQQKPGKGPKLLISEGNTLRPGVPSRFSSSGYGTDFTLTISSLQPEDFATYYCMQSDNLPYTFGQGTKLEIK
B5: hFB54-matu072 affinity-improved antibody (IgG) (antibody, V domains shown)
VH: EVQLVESGGGLVKPGGYLRLSCAASGFTFSSYAMSWVRQAPGKGLDWVATISSGGSYTYYPDNVKGRFTISRDNAKNSLYLQMNSLTDDDTAVYFCARHNYRYDEYYHAMDYWGQGTLVTVSS
VL: ETTVTQSPSSLFASVGDKVTIRCITSIDIDDEMNWYQQKPGKGPKLLISEGNTLRPGVPSRFSSSGYGTDFTLTISSLQPEDFATYYCLQSDNLPYTFGQGTKLEIK
B6: anti-human midkine mouse monoclonal antibody FB54 (antibody, V domains shown)
VH: EVMLVESGGGLVKPGGSLKLSCAASGFTFSSYAMSWVRQTPEKRLEWVATISSGGSYTYYPDSVKGRFTISRDNAKNTLYLQMSSLRSEDTAMYFCARHNYRYDEYYYAMDYWGQGTSVTVSS
VL: ETTVTQSPTSLSMAIGEKVTIRCITSTDIDDEMNWYQQKPGEPPKLLISEGNTLRPGVPSRFSSSGYGTDFVFTIENMLSEDVADYYCLQSDNLPYTFGGGTKLEIK
notes: Mouse hybridoma IgG; variable genes were amplified with mouse IgG1 CH1 and kappa constant primers; also called mFB54; mouse FB54 antibody
B7: humanized FB54 antibody hFB54 (FB54-rHa/FB54-rKc) (antibody, human IgG1, V domains shown)
VH: EVQLVESGGGLVKPGGYLRLSCAASGFTFSSYAMSWVRQAPGKGLDWVATISSGGSYTYYPDSVKGRFTISRDNAKNSLYLQMNSLTDDDTAVYFCARHNYRYDEYYYAMDYWGQGTLVTVSS
VL: ETTVTQSPSSLSASVGDRVTIRCITSTDIDDEMNWYQQKPGKGPKLLISEGNTLRPGVPSRFSSSGYGTDFTLTISSLQPEDFATYYCLQSDNLPYTFGQGTKLEIK
B8: mFB54-matu002 affinity-improved antibody (IgG) (antibody, V domains shown)
VH: EVMLVESGGGLVKPGGSLKLSCAASGFTFSSYAMSWVRQTPEKRLEWVATISSGGSYTYYPDSVKGRFTISRDNAKNTLYLQMSSLRSEDTAMYFCARHNYRYDEYYYAMDYWGQGTSVTVSS
VL: ETTVTQSPTSLSMAIGEKVTIRCTTSIDIDDEMNWYQQMPGEPPKLLISEGNTLRPGVPSRFSSSGYGTDFVFTIENMLSEDVADYYCLQSDNLPYTFGGGTKLEIK
B9: mFB54-matu089 affinity-improved antibody (IgG) (antibody, V domains shown)
VH: EVMLVESGGGLVEPGGSLKLSCTVSGFTFSSYAMSWVRQTPEKRLEWVATISSGGSYTYYPDSVKGRFTISRDNAKNTLYLQMSSLRSEDTAMYFCARHNYRYDEYYYAMDYWGHGTSVTVSS
VL: ETTVTQSPTSLSMAIGEKVTIRCITSIDIDDEMNWYQQKPGEPPKLLISEGNTLRPGVPSRFSSSGYGTDFVFTIENVLSEDVADYYCLQSDNLPYTFGGGTKLEIK
B10: hFB54-matu014 affinity-improved antibody (IgG) (antibody, V domains shown)
VH: EVQLVESGGGLVKPGGYLRLSCAASGFTFSSYAMSWVRQTPGKGLDWVATISSGGSYTYYPDSVKGRFTISRDNVKNSLYLQMNSLTDDDTAVYFCARHNYRYDEYYYAMDYWGQGTLVTVSS
VL: ETTVTQSPSSLSASVGDRVTIRCITNIDIDDEMNWYQQKPGKGPKLLISEGNTLRPGVPSRFSSSGYGTDFTLTISSLQPEDFATYYCLQSDNLPYTFGRGTKLEIK
B11: hFB54-matu020 affinity-improved antibody (IgG) (antibody, V domains shown)
VH: EVQLVESGGGLVKPGGYQRLSCAASGFTFSSYAMSWVRQAPGKGLDWVATISSGGSYTYYPDSVKGRFTISRDNAKNSLYLQMNNLTDDDTAVYFCARHNYRYDEYYHAMDYWGQGTLVTVSS
VL: ETTVTQSPSSLSASVGDRVTIRCITSIDIDDEMNWYQQKPGKGPKLLISEGNTLRPGVPSRFSSSGYGTDFTLTISSLQPEDFATYYCLQSDNLPYTFGQGTKLEIK

Legend:
[1] = molecular target: AP-MK, recombinant protein having alkaline phosphatase (AP) fused to the N-terminal of aa23-121 of MK (human) (UniProt P21741); assay: AP-MK binding inhibition assay on TNB1 cells; antibody 10 ug/mL
Target sequence in this assay (P21741 23-143, form in doubt): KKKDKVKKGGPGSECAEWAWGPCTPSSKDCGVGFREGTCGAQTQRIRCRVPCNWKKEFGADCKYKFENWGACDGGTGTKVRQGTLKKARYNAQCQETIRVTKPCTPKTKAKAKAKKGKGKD

[2] = molecular target: T1, mutant MK recombinant protein MK-K102Q; assay: ELISA, plates coated with wild type or mutant MK, antibody serially diluted from 5 ug/mL
Method: (§1) Hybridomas producing anti-MK antibodies were selected by enzyme-linked immunosorbent assay (ELISA). The assay used the aforementioned recombinant human MK (MKver10) which had been dispensed in a 96-well ELISA plate (nunc) in an amount of 0.5 μg/mL (50 μL/well) and left to stand for 2 hours at room temperature or overnight at […] for adsorption. After removal of the resulting solution, 1% BSA (Nacalai: 01863-35)-5% Sucrose (WAKO)-PBS was added in an amount of 150 μL/well, and the system was allowed to stand for 2 hours at room temperature to block the remaining active groups. After standing of the system, the resulting solution was removed, and the hybridoma culture supernatant (50 μL/well) was dispensed as a primary antibody, whereafter the system was allowed to stand for 1 hour. After the plate was washed with 0.05% Tween 20-PBS, HRP-labeled goat anti-mouse IgG (MBL: 330) diluted 1:10000 was added as a secondary antibody in an amount of 50 μL/well, and the system was allowed to stand for 1 hour at room temperature. After the plate was washed with 0.05% Tween 20-PBS, a color developing solution (5 mM sodium citrate, 0.8 mM 3,3′,5,5′-tetramethylbenzidine-2HCl, 10% N,N-dimethylformamide, 0.625% polyethylene glycol 4000, 5 mM citric acid monohydrate, 5 mM H₂O₂) was added in an amount of 50 μL/well, and the system was allowed to stand for 20 minutes at room temperature to develop a color. 1M phosphoric acid was added in an amount of 50 μL/well to terminate color development, and then the absorbance at 450 nm was measured using a plate reader (Thermo Fisher Scientific).
(§2) The reactivities of the resulting antibodies with the mutant MKs were confirmed by the same enzyme-linked immunosorbent assay (ELISA) as described above. The assays used plates having wild type human MK (MKver10) or the above-mentioned mutant MK (MK-W69A, MK-K79Q, MK-R81Q and MK-K102Q) adsorbed thereto. The anti-MK antibody at a maximum concentration of 5 μg/mL was serially diluted with PBS, and used as a primary antibody. As examples of the antibodies recognizing the N-terminal side or the C-terminal side of midkine, but showing no neutralizing activity, BF106 and FB74 were also evaluated similarly.

[3] = molecular target: T2, mutant MK recombinant protein MK-W69A; assay: as above
Method: as §1, §2

[4] = molecular target: T3, mutant MK recombinant protein MK-R81Q; assay: as above
Method: as §1, §2

[5] = molecular target: T4, mutant MK recombinant protein MK-K79Q; assay: as above
Method: as §1, §2

[6] = molecular target: AP-MK, recombinant protein having alkaline phosphatase (AP) fused to the N-terminal of aa23-121 of MK (human) (UniProt P21741); assay: AP-MK binding inhibition assay on TNB1 cells; AP-MK 0.6 U/ml, antibody 90 ug/mL
[7] = molecular target: T5, full length purified peptide of …; assay: ELISA on full length purified peptide of pleiotrophin

Binder | relative AP activity (% of wells with AP-MK alone) [1] | further results
B1 | 22.7% | 
B2 | 30.1% | 
B3 | 33.5% | 
B4 | 28.3% | 
B5 | 33% | 
B6 |  | binding result [2]: binds; binding result [3]: binds; binding result [4]: binds; binding result [5]: binds; relative AP activity (% of wells with AP-MK alone) [6]: 29.5%; binding result [7]: no binding
B7 | 81.8% | 
B8 | 18.9% | 
B9 | 20% | 
B10 | 25.6% | 
B11 | 26.8% | 

Source: patent US20150203573A1 (MEDICAL AND BIOLOGICAL LABORATORIES, published 2015)
